In a protein production outcome set (Wang et al. 2014):

Assay: label from the status in PepcDB records

Row | Sequence | protein production
1 | MWVQTKANEDAAPMSERFTLVLLTHEAKALAQRALRYYSSFACSILVLDSSEKADESLARQFPKVDYRHVPQFSRQDQQGKLTYGVGLVDTPYLAIASDTDFLIADGISAALAFLDAHPDYAVCHGYGLMYSARVLETSYYLRDRKGPEDFAAANGRERIMSFMGHYLSPFNAVTRTDVLRQWYSQLPPAVSTEWLDIGYAFFLLATAKARILPVPFIVREANREALERTARIQALLSSKDAGSLAQHQQFAEFLATLPHNCEGPDAQQMKQLALDSFAALAECLESGRSLKGVMIFRSTWSEVGKDPVRAFGSEQFVEMPFYNQPMFDLLTQIEFLVHAMPAGRLQLNELEGVLLKQEELLRVHSNDTARTLRSRLWEAMALNLFNFTVVKRLAESMRDTDEVEVFRELQEWAARLKALPATDSSALFANTQSGQLFSWLEGRGPKPGQFKSIAHLLGRRAGGPQFQILLLDLDADMIKLQATFDSLMANHCKAFKLVVLTTGDLPAMTTAQDTVHFVKVSQGNYIERLNQLVAQSTAHWVLLMEAGDQLTASGLLRASLELLGAEGIRAVAMDEVQRQADGTLRHVFRPGVNLDLLQSAPNLMARHWLLHREVLLQAGGFNREFARAVELDLVLRLIEDGGLAGLAHLAEPLLICQAAPAGENAEERQVLSRHLANRGYRAQVSSAQPGTYQIDYQHAERPLVSIILPSQDNFAELQRCLVSVLQRTRYQRYEVLIAENHSQNAELDSWLASLERQGERIRVLRSGQRVSTSALHNAACAEAKGEYLLLLSADAEVVNANWIDSLLNQVQRPEIGIVGARLVNERGMTTQAGLILGLNGQLGAAFAGEAKDAPGYMNSLWVEKNYSAVSGVCLMIAKALFEAVGGLDEEHFDQAFADVDLCLKVADAGYLTVLTPQAQVMHPGTLAQDPQALAALKDKWAARFAQDTAYNQNLALTGKGFALGTASRVDWQQLLSN | failed
2 | EVVVAVASAPVDVAQVGRRRGRLAVIGLGPGAAELMVPAVKAELAQAEDVLGYETYVRMAGPFRGDQVLHCTDNREEMQRARHAFELAAQGRSVAVVSSGDPGVFAMAAAVLEALHESSDPTWHRVDLQILPGV | failed
3 | MSITLLTGIGEIFLGILLNVFIGKIVKIVFKKDGTLPRVPVRFIGITLILNGVGNMVHL | failed
4 | MIDAQMSERFPARINILAVNSPGSLAEITQVISANDANIQNLSFIRTAPDFTEIMIDLEVWDLKHLNRIFSQLKKAGSVSTVRRGHGLEHHHHHH | failed
5 | MNRPGVLTSPGSIPLRPRRRDPSGPASARARVEARQRVGKILVVAGWIVSLAGVAIYCVTSFAAGADADLAAILIDGAIPAARAGLAVVGVGTLTWVVGSILHLNASLDAADAERDGPAEG | failed
6 | MLRPRTIKEGSVGLFALLGLFIIGGIVLWLRGGAFGNPGYEVLVQFDDASGLQVGGAVRYRGVPVGRVAKLIPGSNGILAQLEISSTQLRIPADVQVEISRYGLLGEAAIDMIPDRQLSEAALAIDPLSADCAESDKILCDGDELEGQAGTQLTNSMARLAQAYSEPEFVADINATVKSANLAAARIAAMSAEITALSKTANQQVRGFERTSEAIAKAADNASLLTSRVDQVVQTNQGYINRTIEEASLLMVNLNQLVGENRAQFNLTLKSIETTNRDLQAIGQEIQTAVGTINHGLAAIDTQKVTNDLALLMENAAVTSNNIRQISNDLNDPTLMLTLQQTLDAARLTFENAQKITSDVEQLTGDPAFRNNLRKLVDGLGQLVSSTENLQDRVYTAHTLERSGQQLRFQLDHQQQLALYYEQWGVINPVPASGSPSPQIQTPKIKPPQPKENQGK | failed
7 | DAHSTIDSRIIHFKLEFANEFLAEKLQVALQSPVYNIYRLRIIDGKPYVLEQTYMSTDVIPGITEDILQKSIYNYIEGKLGLHIASATKILRASSSSENEQHYLQLLPTEPVFEVEQVAYLDNGTPFEYSISRHRYDLFE | not failed
8 | MELVFDKDGLSAYLEEVFPQIQGEFSIDALAKGEITMRLNVQERHLRPGGTVSGPSMFALADVSVYALVLAHLGREALAVTTNASLDFMRKPESGRDLLGQARLLKLGRTLAVGDILLFSEGMEAPVARSTMTYSIPPKR | not failed
9 | MSNELPAVICLVGPTGAGKTAAALHLAERFAGTVINADSRQVYRDFPIITAQPTAEEQAQCPHRLYGFLETEARMSAGVWGDHATAAIDEALAQGRLPLLVGGTGMYVRALLDGIAAIPAIPRDIHVRWQERCAAEGPQRLHAMLCDIDAEYAARIHPNDRQRVTRALEVHEHTGRTFSEWHRSAMPAPRYRALRIGFAATLDALTPRLAHRIDLMLAAGALDEARRARVHCDDPSAPGWSGIGCAETYAHLVGSLDYEAMRHVWLHNTRAYAKRQLTWFRADTRLTWYAPDDVEGIALGVASFLRGGA | failed
10 | MNTARANRENGAGNIYIGFGDSQLSLMDSHQARPEPVHTVCSKPPLKRPPSREEHLRQRLVKTIHSQRIISGKNRLSNPPRMANPQANSIIGISTYFGPTN | failed
11 | MNSKFKGIIFMILASAAFATMNLLSKLAVGVNSYQKTFLTNVVATLIVCFIIAYKKGSFFGKKESRKYLLVRGVTGTLSILTNYYALDKMFLSDATILTKLAPFFTIIFSYLLISEKITKKQFTLLIVAFAGSLFVIKPQFSTAIIPSLIGVASAAFAGIAYTMIRVIGDKEDFWTIILSFTSIATIVMLPSMFMNTDNLTLQNILLLVSAGIAFTLGQVALTIAYKNAPASEISMYDYIGLIIAAIYGFMFFKEIPDFLSFTGYIIIVGSSLLNILGNKKTSNKEINEDSSLVSTD | failed
12 | MKSVQEKRNNTRAFKTVAKSWFATKTTWSEDYQRSVWTRLETYLFPDIGNKDIAELDTGDLLVPIKKIEKLGYLEIAMRVKQYATAIMRYAVQQKMIRFNPAYDLEGAVQKLEHHHHHH | not failed
13 | MVRLTPFYKKLSILFVEDEREVQEAALNVLERYIDHILVASDGEEALAIFKEKRPDIVITDIKMPVMDGLALTKEIKELGDTPVIVISAFDNEEFVSEAARLGVETYLLKPIDIQLLLASINRCIELLIRREEARQNRSLLREYKRIVDETAMICKIDLDKTITYANEAFCQISGYSKEELTGKIYRHMVSPRQDLSRLDGGLWVNVLRGKSWKGMIELLNKKGEPYFIQASMFPLFDADGKITELIALQFDITEHIKTKQILEKQNQKLEHIAHTDTLTGVWNRYKFNKILRQEIKCAKSSNHPFSLMLLDVDRFKTINDTHGHQFGDRVLKAITSTLKRQLKHKEAMIARWGGEEFIVLAQGYRLAQALELAERLRAAIEGMEFENIPITSSFGVTEFSPEDELDTLVRRADLALYTAKESGRNRIISY | failed
14 | MIDLNEALAKDRWIGRLASHLDGFEALLDGQGYAKTTVQQKIKLLAGFSAWVERQDVPLSLLGEEDADLFLTELGLRPRRGDAWTIRQLVRYLRDTGGVPVLLPEVDTSAKGKLIDAFGEFLRKERGLSASTLTNYLPIIRGFLDEQFGGKDPGFDHLRVGDVHRFIVRRAQAGSLGRAKLAVTALRSFLRFLQQRGLLATDLAVAVPGIAGWRLAHLPKALRAEQVERLLASCDRRTPAGRRDYAVLMLLARLGLRGGEVSALTLDDLDWDCGEIVVHGKGQRLARLPLPADVGAALVDYLRQDRPACSTRRVFIRTRAPRRGFVSQSTICCIVRRALKRAGLTPAFKGAHLLRHSLATDLLRRGASLVEIGQLLRHSQPNTTQIYAKVDIAALRAIALPWPGVAS | failed
15 | MSRVSLRLWDPLVRLFHVSIAGVFVANYFFNEAGDDWHIWLGYYAVAWLAVRVVWGFLGPTSARWSDFWPSPARLRAHVRSLIDRKPVHRLGHSPLGALVMVLMMALIFGMGLTGFLMEEVDALWGADWPLQTHEILANTLCALVVLHMAAAIFESFQVRDNLPLSMLTGKRRPLPEDDYR | failed
16 | MRARLYAAFRQVGEDLFAQGLISATAGNFSVRTKGGFLITKSGVQKARLTPEDLLEVPLEGPIPEGASVESVVHREVYRRTGARALVHAHPRVAVALSFHLSRLRPLDLEGQHYLKEVPVLAPKTVSATEEAALSVAEALREHRACLLRGHGAFAVGLKEAPEEALLEAYGLMTTLEESAQILLYHRLWQGAGPALGGGE | not failed
17 | MMSYDAETGIAKVKCQSQSTCGACSARETCGTESLSELNGKRGEHIFTLETITPLRTDQMVEIGLEEKSMLFSALLMYIVQLFTLLVATLLSSYISENELIRAILIFMLTALSFVMVKRYTRKLGQQTEFQSVLLRVLF | failed
18 | MLVRNICKFTQVMGRFRVVVNPRDYCHLAPLKRSRYHQRSEFGCRPLCSNAAGYEVSWAAPPASGSSGGMFWAFSAAFTLNLFGGADEKEETPEEKLIKTIKRSILCIQREQYDKAEQMLHLALRMAQDIQSKDGITYVFDLMANLAMEREQFKKAEKIFTDVMKRLFAEGHTEESPKILHISSKIAHMSQLQGDLEKSFQGFTWTLQQLAKLLEKMPDDKDILELYGLTKNWFGQLLMKQGKYLEAKNLFKEAFDTLINVYGAVNDASVTILNNISVAYVNLEKYAEARETLLEAMELTKELKDATQEGILQANLGLVYLREGLMSQAENACRLAWKLGKQHQNPDAVEQAEYCLNEIKTTLNGEKRQ | failed
19 | ITERHLIEESLKESQQRWEFALEGSGDGIWDWGVMEDRLFLSARLQEMFGYARGEMGESMEQASSFILKEDRARVLSTLYRFLKEGEGQYADEFRVNCKEGGYRWIFSRGMVVKRNAQGEAARMIGIFTDI | failed
20 | MRNPHSNGNLRKLEADGGGEATEENGFVNGVILGLDGGATSTVCVCVPFFSFGERFPDPLPILGRAVAGCTNRNSVGETAARDSLEQVISEALVQSGFDKSDVRGVCLGVSGVNHPSDQEKIENWIRDMFPSHVKVYVQNDAIVALASGTMGKLHGCVLIAGTGCIAYGFDEDGKEARASGGGPILGDWGSGYGIAAQALTAVIRAHDGRGPQTMLTSTILKALGLSSPDELIGWTYADPSWARIAALVPQVVSCAEAGDEISDKILVDAAEDLALSVKAVVQRLGLCGKDGTASFPVVMVGGVLNANQKWDIGKEVSKRINRYFPGAQTIIPKVEPAVGAALLAMNFLSS | failed
21 | MHDATDSLPLCMTRPTRFRWVWWLLAYASLATGIVGIFVPGLPTTVLILNLRLGRLTWLRSRLHYWLLSHPRFGPAIVEWQTYRAVSRKAKWMATLTMSICAAIMLWCVPVFWVKCLSIGSMAVVAIWLWLRPEPPPRPLPAAH | failed
22 | MDGHNQNQYQNQNQIQQSQQPPLKKYVTQRRSVDVSSPYINLYYNRRHGLPNLVVEPETSYTIDIMPPNAYRGRDRVINLPSKFTHLSSNKVKHVIPAIQWTPEGRRLVVATYSGEFSLWNASSFTFETLMQAHDSAVTTMKYSHDSDWMISGDADGMIKIWQPNFSMVKEIDAAHTESIRDMAFSSNDSKFVTCSDDNILKIWNFSNGKQERVLSGHHWDVKSCDWHPEMGLIASASKDNLVKLWDPRSGNCISSILKFKHTVLKTRFQPTKGNLLMAISKDKSCRVFDIRYSMKELMCVRDETDYMTLEWHPINESMFTLACYDGSLKHFDLLQNLNEPILTIPYAHDKCITSLSYNPVGHIFATAAKDRTIRFWTRARPIDPNAYDDPTYNNKKINGWFFGINNDINAVREKSEFGAAPPPPATLEPHALPNMNGFINKKPRQEIPGIDSNIKSSTLPGLSI | failed
23 | MSDSSPTINFINFNQTGTCISLGTSKGFKIFNCEPFGKFYSEDSGGYAIVEMLFSTSLLALVGIGDQPALSPRRLRIINTKKHSIICEVTFPTSILSVKMNKSRLVVLLQEQIYIYDINTMRLLHTIETNPNPRGLMAMSPSVANSYLVYPSPPKVINSEIKAHATTNNITLSVGGNTETSFKRDQQDAGHSDISDLDQYSSFTKRDDADPTSSNGGNSSIIKNGDVIVFNLETLQPTMVIEAHKGEIAAMAISFDGTLMATASDKGTIIRVFDIETGDKIYQFRRGTYATRIYSISFSEDSQYLAVTGSSKTVHIFKLGHSMSNNKLDSDDSNMEEAAADDSSLDTTSIDALSDEENPTRLAREPYVDASRKTMGRMIRYSSQKLSRRAARTLGQIFPIKVTSLLESSRHFASLKLPVETNSHVMTISSIGSPIDIDTSEYPELFETGNSASTESYHEPVMKMVPIRVVSSDGYLYNFVMDPERGGDCLILSQYSILMD | failed
